US12427210B2, “Compounds comprising a fibroblast activation protein ligand and use thereof” (priority 2019, dated 2025)

Target: T1, DPP3 (Homo sapiens (Human)) (UniProt Q9NY33)
T1 sequence: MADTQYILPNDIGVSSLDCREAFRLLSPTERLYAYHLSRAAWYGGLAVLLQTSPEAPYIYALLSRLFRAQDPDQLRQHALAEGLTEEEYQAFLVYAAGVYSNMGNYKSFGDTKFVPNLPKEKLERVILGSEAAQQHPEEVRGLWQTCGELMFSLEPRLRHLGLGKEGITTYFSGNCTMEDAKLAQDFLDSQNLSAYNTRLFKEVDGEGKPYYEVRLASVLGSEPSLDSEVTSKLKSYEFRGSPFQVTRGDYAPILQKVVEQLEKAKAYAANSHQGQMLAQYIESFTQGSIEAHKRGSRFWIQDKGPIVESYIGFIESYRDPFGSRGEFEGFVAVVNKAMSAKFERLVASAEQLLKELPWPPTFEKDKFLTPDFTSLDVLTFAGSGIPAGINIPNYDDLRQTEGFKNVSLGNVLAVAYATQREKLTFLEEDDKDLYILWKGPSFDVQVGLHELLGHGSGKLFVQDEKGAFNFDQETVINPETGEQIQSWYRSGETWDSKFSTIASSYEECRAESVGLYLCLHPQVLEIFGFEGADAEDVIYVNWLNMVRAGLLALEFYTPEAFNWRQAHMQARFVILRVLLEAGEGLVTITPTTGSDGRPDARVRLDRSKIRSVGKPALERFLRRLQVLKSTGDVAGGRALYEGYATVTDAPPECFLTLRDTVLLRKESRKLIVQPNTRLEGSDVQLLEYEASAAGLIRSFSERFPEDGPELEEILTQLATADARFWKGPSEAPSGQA

Substance: Hex-[Cys(tMeBn(DOTA-AET))-Pro-Pro-Thr-Gln-Phe-Cys]-OH (3BP-3554) (peptide)
- Percentage inhibition (%) (% inhibition at 10 µM): -1
